Paper PMC4860835, “ALG-2 activates the MVB sorting function of ALIX through relieving its intramolecular interaction” (Cell Discovery, 2015)

Biological target: T1, ALIX (endogenous, HEK293 cells) (human (endogenous in HEK293), UniProt Q8WUM4 1-868)
T1 construct: also called cytosolic ALIX; AIP1
T1 sequence (looked up): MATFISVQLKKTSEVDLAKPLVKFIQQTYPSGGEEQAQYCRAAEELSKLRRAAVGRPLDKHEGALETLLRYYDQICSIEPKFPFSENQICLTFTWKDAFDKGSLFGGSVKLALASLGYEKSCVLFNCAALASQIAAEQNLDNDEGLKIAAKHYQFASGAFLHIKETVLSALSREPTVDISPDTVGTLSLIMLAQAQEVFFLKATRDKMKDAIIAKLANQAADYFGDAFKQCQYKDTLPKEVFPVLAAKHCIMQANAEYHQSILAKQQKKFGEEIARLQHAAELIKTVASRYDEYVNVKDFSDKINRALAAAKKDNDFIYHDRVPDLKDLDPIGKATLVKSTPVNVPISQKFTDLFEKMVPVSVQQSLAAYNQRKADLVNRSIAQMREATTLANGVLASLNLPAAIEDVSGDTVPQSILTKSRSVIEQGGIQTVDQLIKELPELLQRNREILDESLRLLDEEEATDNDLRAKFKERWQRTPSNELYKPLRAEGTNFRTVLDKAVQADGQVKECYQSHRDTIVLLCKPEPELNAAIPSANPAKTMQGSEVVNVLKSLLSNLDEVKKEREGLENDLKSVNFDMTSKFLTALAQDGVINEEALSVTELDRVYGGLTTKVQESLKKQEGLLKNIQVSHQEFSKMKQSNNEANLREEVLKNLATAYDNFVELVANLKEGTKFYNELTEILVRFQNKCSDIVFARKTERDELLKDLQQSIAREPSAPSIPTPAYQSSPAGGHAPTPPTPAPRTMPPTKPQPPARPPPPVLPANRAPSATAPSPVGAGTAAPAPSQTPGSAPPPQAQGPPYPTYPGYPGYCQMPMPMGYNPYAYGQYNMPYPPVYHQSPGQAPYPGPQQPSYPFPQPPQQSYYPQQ
Assay: co-IP; 0.1% Triton X-100-solubilized HEK293 cell lysates, 10 μM CaCl2 added; control and EGF-stimulated cells (Supplementary Figure S3A)
Conditions: partners not purified

B1: ALG-2 (endogenous, HEK293 cells) (natural protein, human (endogenous in HEK293), UniProt O75340 1-191, looked up)
chain: MAAYSYRPGPGAGPGPAAGAALPDQSFLWNVFQRVDKDRSGVISDTELQQALSNGTWTPFNPVTVRSIISMFDRENKAGVNFSEFTGVWKYITDWQNVFRTYDRDNSGMIDKNELKQALSGFGYRLSDQFHDILIRKFDRQGRGQIAFDDFIQGCIVLQRLTDIFRRYDTDQDGWIQVSYEQYLSMVFSIV
notes: also called endogenous ALG-2; apoptosis-linked gene-2 product; source: endogenous, HEK293 membrane and soluble fractions and 0.1% Triton X-100 lysate
fold more ALG-2 interacting with ALIX in EGF-stimulated cells than in control cells: 3.5 fold
